The text below walks through data of PMC4930772.

The assay has as its target PP2A B56γ1 30-380 (UniProt Q13362). In words: ITC. On the technique in general: In ITC the heat of successive injections is recorded.
Where [1] appears, read: reference: wild type, sites T680.
The mark [2] stands for this setting: reference: wild type, sites S670.
The mark [3] stands for this setting: reference: wild type, sites S676.

As for “BubR1 647-720 (from UniProt O60566) 3D (S670D/S676D/T680D)”, for the setting “reference: wild type, sites S670,S676,T680”, the KD entry was “same; reference 2.91 ± 0.50”.

Consider “BubR1 647-720 (from UniProt O60566) AAAA (E678A/T680A/H681A)”, for which the KD entry under setting [1] is “weaker; reference 2.91 ± 0.50”.

Consider “BubR1 647-720 (from UniProt O60566) DDT (S670D/S676D)”, for which the KD result (reference: wild type, sites S670,S676) is “same; reference 2.91 ± 0.50”.

With “BubR1 647-720 (from UniProt O60566) DSD (S670D/T680D)”, the KD entry (reference: wild type, sites S670,T680) was “same; reference 2.91 ± 0.50”.

“BubR1 647-720 (from UniProt O60566) DST (S670D)”: the KD entry under setting [2] is on record as “same; reference 2.91 ± 0.50”.

With “BubR1 647-720 (from UniProt O60566) S670A”, the KD entry under setting [2] is “same; reference 2.91 ± 0.50”.

In the case of “BubR1 647-720 (from UniProt O60566) S676A”, the KD entry under setting [3] was “same; reference 2.91 ± 0.50”.

Consider “BubR1 647-720 (from UniProt O60566) SDD (S676D/T680D)”, for which the KD result (reference: wild type, sites S676,T680) is listed as “same; reference 2.91 ± 0.50”.

With “BubR1 647-720 (from UniProt O60566) SDT (S676D)”, the KD result under setting [3] is “same; reference 2.91 ± 0.50”.

In the case of “BubR1 647-720 (from UniProt O60566) SSD (T680D)”, under setting [1], the KD entry is “same; reference 2.91 ± 0.50”.

With “BubR1 667-681 (from UniProt O60566) B56γ1 R188A”, the KD entry (reference: B56γ1 wild type, sites S670) was “weaker; reference 0.25 ± 0.06”.

In the case of “BubR1 667-681 (from UniProt O60566) pS670 15-mer”, the KD entry (reference: unphosphorylated 15-mer, sites S670) was “stronger; reference 2.80 ± 0.30”.

For “BubR1 667-681 (from UniProt O60566) pS676 15-mer”, the KD entry (reference: unphosphorylated 15-mer, sites S676) is reported as “stronger; reference 2.80 ± 0.30”.

Regarding “BubR1 667-681 (from UniProt O60566) pS676/pT680 15-mer”, the KD result is “same; reference 0.69 ± 0.11” (reference: pS676 15-mer, sites T680) and “stronger; reference 2.80 ± 0.30” (reference: unphosphorylated 15-mer, sites S676,T680).
